Experimental data published in PMC11141937 (2024).

Columns and labels:
[1] = biological target: T1, SARS-CoV-2 WT (WH01) S protein ectodomain (SARS-CoV-2, UniProt P0DTC2 14-1213); test: BLI
WT S2 = test: ELISA
WT NTD = test: ELISA
[2] = biological target: SARS-CoV-2 WT (WH01) S protein on S-293T cells (SARS-CoV-2, UniProt P0DTC2); test: FACS
[3] = biological target: T1, SARS-CoV-2 WT (WH01) S protein …; test: ELISA
[4] = biological target: S1 of SARS-CoV-2 WT S protein (SARS-CoV-2); test: ELISA
[5] = biological target: RBD of SARS-CoV-2 WT S protein (SARS-CoV-2, UniProt P0DTC2); test: ELISA

B1: O5C2 mAb (antibody, V domains shown)
VH: EVQLVESGGGLIQPGGSLRLSCAASGIIVSRNYMSWVRQAPGKGLEWVSILYAGGSSFYAEPVQGRFTVSRDNSKNTLFLEMNSLRVEDTAVYYCARDLQWGIDIWGQGAMVTVSS
VL: DIQMTQTPPSLSASVGDRVSISCRASQSTGSWLAWYQQKPGKAPKLLIYKTSSLESGVPSRFSGSGSGTEFTLTISSLQPDDVATYYCQHYDTYSSTFGQGTKVEIK
- Kd [1]: 0.865 nM
- EC50 (WT S2): > 1000 nM
- EC50 (WT NTD): > 1000 nM
- EC50 [2]: 0.177 nM
- EC50 [3]: 0.024 nM
- EC50 [4]: 0.017 nM
- EC50 [5]: 0.018 nM
